Substrate in data set [1]: O=C(O)c1ccc(C(=O)OCCO)cc1
The experiment in a line: purified protein, by the assay type. To be noted: other: MHET 10-250 μM, 5 nM enzyme, pH 7.5, 30° C., substrate inhibition model.

Substrate in data set [2]: O=C(O)c1ccc(C(=O)OCCO)cc1
The data set can be described thus: Michaelis-Menten kinetics of MHETase and variants (substrate inhibition model). Type of data set: biochemical, Comamonas thiooxydans. To be noted: other: MHET 10-250 μM, 5 nM enzyme, pH 7.5, 30° C.

B1: Ideonella sakaiensis 201-F6 MHETase (Is MHETase), wild type, Genbank GAP38911.1, C-terminal His tag (DNA SEQ ID NO: 1) (Pseudideonella sakaiensis) (protein)
chain: CAGGGSTPLPLPQQQPPQQEPPPPPVPLASRAACEALKDGNGDMVWPNAATVVEVAAWRDAAPATASAAALPEHCEVSGAIAKRTGIDGYPYEIKFRLRMPAEWNGRFFMEGGSGTNGSLSAATGSIGGGQIASALSRNFATIATDGGHDNAVNDNPDALGTVAFGLDPQARLDMGYNSYDQVTQAGKAAVARFYGRAADKSYFIGCSEGGREGMMLSQRFPSHYDGIVAGAPGYQLPKAGISGAWTTQSLAPAAVGLDAQGVPLINKSFSDADLHLLSQAILGTCDALDGLADGIVDNYRACQAAFDPATAANPANGQALQCVGAKTADCLSPVQVTAIKRAMAGPVNSAGTPLYNRWAWDAGMSGLSGTTYNQGWRSWWLGSFNSSANNAQRVSGFSARSWLVDFATPPEPMPMTQVAARMMKFDFDIDPLKIWATSGQFTQSSMDWHGATSTDLAAFRDRGGKMILYHGMSDAAFSALDTADYYERLGAAMPGAAGFARLFLVPGMNHCSGGPGTDRFDMLTPLVAWVERGEAPDQISAWSGTPGYFGVAARTRPLCPYPQIARYKGSGDINTEANFACAAPP
As to B1, the Km in data set [1] is 23.17 ± 1.65 µM.

B2: Comamonas thiooxydans MHETase (putative MHETase, Genbank WP_080747404.1), C-terminal His tag (Comamonas thiooxydans) (protein)
chain: HMFVRNADRAKNCMRAPLRVFPLKDTFSAQCANVSVWITSSVPPLRERHMDRRVTRRDLMQTRILLMLIAATGVAACGGDGGSTPAAQNPPLPLASRAACEAFQGNSNSIAWPHRATVVEVATWHEAEPANATAAATPEHCEISGAIARRTGIDGYPYEIKFRLRMPSEWNGRFFMEGGGGTNGSLSAATGSLGGGQTASALSRNFATIATDGGHDNAVNNNPDALGTVAFGMDPQARIDMGYNSYDQVTQAGKAAVAQFYGRAPDKSYFIGCSEGGREGMMLSQRFPSHYDGIVAGAPGYQLPKAGISGAWTTQSLAPAAVGVDAQNVPLINKAFSDVDLHLLSRGILGTCDALDGLSDGIVNDFRACQAAFDPATALNPDTSQPLQCTGAKTPDCLSAAQVTGIKRAMGGPVDSAGAALYNRWAWDPGMSGLNGTSYNQGWRSWWLGSYASSTNNAQRVNGFSARSWLVDFATPPEPMPVTQVAARMMNFNFDTDPPKIRATSGPFTPSSMEWHGATSTNLAAFRDRGGKLMLYHGMSDAAFSALDTADYYERLGAAMPGAAGFARLFLVPGMNHCSGGPGTDRFDMLTPLVAWVERDKAPDQVSAWAGTPGYFGATARTRPLCPYPQIARYKGSGDINAEASFVCVAPLE
For B2, in data set [2], the Km worked out at 174.70 ± 4.75 µM, the maximal velocity (Vmax) amounted to 12.2 µM/min and the kcat/Km came to 230000 M⁻¹ s⁻¹.

For orientation: Km means the substrate concentration at which the rate is half of its maximum. The Vmax is the rate approached at saturating substrate. In general, kcat/Km refers to the turnover number divided by the Michaelis constant.

Values taken from patent US20230151340A1, “PLASTIC DEGRADING FUSION PROTEINS AND METHODS OF USING THE SAME” (Alliance for Sustainable Energy, LLC, priority 2020, published 2023).
